# B1: catalytic domain of human B4GalT1 (Asp99-Ser398), wild type (domain or fragment, UniProt P15291 99-398, looked up)
# chain: DSSPVVDSGPGPASNLTSVPVPHTTALSLPACPEESPLLVGPMLIEFNMPVDLELVAKQNPNVKMGGRYAPRDCVSPHKVAIIIPFRNRQEHLKYWLYYLHPVLQRQQLDYGIYVINQAGDTIFNRAKLLNVGFQEALKDYDYTCFVFSDVDLIPMNDHNAYRCFSQPRHISVAMDKFGFSLPYVQYFGGVSALSKQQFLTINGFPNNYWGWGGEDDDIFNRLVFRGMSISRPNAVVGRCRMIRHSRDKKNEPNPQRFDRIAHTKETMLSDGLNSLTYQVLDVQRYPLYTQITVDIGTPS
# notes: EC 2.4.1.38), human, residues Asp99-Ser398: a piece of the stem domain (Asp99-Leu125) and the catalytic domain (Ser126-Ser398); the construct's calculated molecular weight is printed as 36.35 kDa; The tag is surmised from the nickel purification; In equilibrium between monomer and dimer; also called Beta-1,4-galactosyltransferase 1; recombinant B4GalT1; source: E. coli BL21(DE3) with the CyDisCo …
# Target: the molecule itself
# Test: SEC; gel filtration on a 24 ml Superdex 200 HR 10/30 column calibrated with γ-globulin (158 kDa), ovalbumin (44 kDa) and myoglobin (17 kDa); monomer and dimer
protein,measurement,value
B1,stoichiometry N,2

# — paper PMC6198961, “The dimeric structure of wild-type human glycosyltransferase B4GalT1” (PLoS ONE, 2018)
